Laboratory results: the Human Domainome abundance scans (Beltran et al. 2025)
± gives the uncertainty stated by the source.

B1: GA-binding protein alpha chain, residues 172 to 250; numbered along this chain, Q06546 (parent)
chain: GYRKEQERLGIPYDPIQWSTDQVLHWVVWVMKEFSMTDIDLTTLNISGRELCSLNQEDFFQRVPRGEILWSHLELLRKY

Variants of: B1
Test: abundance fitness (aPCA) (normalised: wild type 0, dead -1); higher = more abundant; growth selection in yeast, the domain comes from the species named
Conditions: Homo sapiens

Abundance fitness of substitutions, site by site:
V27: I -0.059 ± 0.067; N -0.818 ± 0.42; Q -0.271 ± 0.051; G -0.037 ± 0.028; P -0.668 ± 0.062; S -0.171 ± 0.031; Y -0.197 ± 0.091; E -0.913 ± 0.19; R -0.436 ± 0.03; W -0.732 ± 0.054; F -0.256 ± 0.071; L -0.194 ± 0.032; D -0.75 ± 0.12; C -0.073 ± 0.062; K -0.478 ± 0.073; M -0.106 ± 0.056; H -0.758 ± 0.1; T -0.245 ± 0.042
D21: I -0.36 ± 0.068; W -0.185 ± 0.04; R -0.096 ± 0.032; S -0.029 ± 0.036; Y -0.27 ± 0.084; G -0.002 ± 0.031; N -0.044 ± 0.073; K -0.029 ± 0.084; H -0.049 ± 0.054; F -0.391 ± 0.094; L -0.414 ± 0.042; V -0.172 ± 0.035; A -0.031 ± 0.044; T -0.114 ± 0.055; P -0.089 ± 0.03; M -0.134 ± 0.09
D14: H -0.147 ± 0.078; A -0.369 ± 0.043; G -0.805 ± 0.049; P -0.596 ± 0.066; W -0.651 ± 0.055; E -0.15 ± 0.049; T -0.868 ± 0.24; C -0.393 ± 0.048; L -0.766 ± 0.061; M -0.784 ± 0.081; Q -0.344 ± 0.08; K -0.793 ± 0.23; Y -0.57 ± 0.11; R -0.954 ± 0.064; V -0.856 ± 0.071; S -0.205 ± 0.036; N -0.072 ± 0.06; F -1.01 ± 0.18; I -0.94 ± 0.15
V28: I -0.017 ± 0.06; H -0.013 ± 0.093; C 0.039 ± 0.042; K 0.085 ± 0.069; F -0.129 ± 0.064; D 0.017 ± 0.13; G -0.023 ± 0.034; A -0.004 ± 0.047; E -0.039 ± 0.065
I11: G -0.752 ± 0.046; P -0.928 ± 0.13; E -0.924 ± 0.13; F -0.263 ± 0.071; Y -0.238 ± 0.061; V -0.342 ± 0.031; N -0.818 ± 0.22; R -0.808 ± 0.062; S -0.842 ± 0.075; D -0.921 ± 0.34; H -0.644 ± 0.25; A -0.651 ± 0.058; L -0.191 ± 0.035; M -0.312 ± 0.045; T -0.75 ± 0.089; K -1.21 ± 0.44; C -0.487 ± 0.058; Q -1.01 ± 0.33
Q17: W -0.08 ± 0.048; T -0.029 ± 0.098; M -0.134 ± 0.069; D 0.017 ± 0.16; I -0.269 ± 0.07; F -0.28 ± 0.1; R -0.009 ± 0.036; V -0.121 ± 0.043; A -0.056 ± 0.043; K -0.143 ± 0.059; E 0.049 ± 0.07; P -0.942 ± 0.14; H 0.085 ± 0.082; L -0.01 ± 0.034; N -0.062 ± 0.1; G -0.099 ± 0.04; C -0.127 ± 0.06
G10: P -0.978 ± 0.13; V -0.383 ± 0.037; I -0.562 ± 0.23; Q 0.01 ± 0.057; M -0.096 ± 0.059; N 0.028 ± 0.075; L -0.158 ± 0.03; A -0.068 ± 0.035; W -0.464 ± 0.045; C -0.079 ± 0.05; E -0.096 ± 0.038; H -0.07 ± 0.085; R -0.085 ± 0.033; F -0.272 ± 0.079; K -0.041 ± 0.051; D -0.196 ± 0.087; T -0.411 ± 0.069
P15: S -0.765 ± 0.066; L -0.72 ± 0.058; F -0.717 ± 0.094; V -0.243 ± 0.036; I -0.356 ± 0.066; C -0.742 ± 0.08; N -0.606 ± 0.11; G -0.888 ± 0.073; W -1.09 ± 0.15; Q -0.878 ± 0.19; M -0.635 ± 0.11; Y -0.901 ± 0.28; A -0.641 ± 0.067; R -0.56 ± 0.04; T -1.07 ± 0.23; E -1 ± 0.15; H -0.813 ± 0.23
Y13: P -0.058 ± 0.049; V -0.109 ± 0.032; L -0.014 ± 0.036; S -0.029 ± 0.039; D -0.064 ± 0.052; N 0.006 ± 0.11; H -0.114 ± 0.088; Q -0.048 ± 0.06; I -0.022 ± 0.074; F 0.014 ± 0.03; C -0.138 ± 0.076; G -0.119 ± 0.028; M 0.012 ± 0.062; A -0.085 ± 0.039; T -0.152 ± 0.087; K -0.024 ± 0.063; E 0 ± 0.048
I16: W -0.016 ± 0.056; V -0.014 ± 0.034; H 0.099 ± 0.073; P -0.458 ± 0.059; N -0.082 ± 0.07; Q 0.036 ± 0.074; L -0.012 ± 0.036; T -0.065 ± 0.069; D -0.116 ± 0.086; C 0.036 ± 0.054; Y 0.037 ± 0.09; E 0.101 ± 0.079; F -0.027 ± 0.064; K -0.025 ± 0.085; R -0.013 ± 0.03; A -0.021 ± 0.041; M 0.032 ± 0.26
P12: T -0.56 ± 0.077; C -0.494 ± 0.072; K -0.762 ± 0.19; R -0.969 ± 0.078; D -0.34 ± 0.1; W -0.98 ± 0.14; G -0.577 ± 0.041; E -0.478 ± 0.069; L -0.955 ± 0.085; S -0.229 ± 0.036; A -0.3 ± 0.033; F -0.949 ± 0.22; I -0.912 ± 0.33; V -0.724 ± 0.035; N -0.542 ± 0.2; Y -0.707 ± 0.16; M -0.903 ± 0.12
L24: T -0.056 ± 0.062; I -0.091 ± 0.064; F -0.119 ± 0.072; P -1 ± 0.13; M -0.011 ± 0.038; G -0.109 ± 0.03; Y -0.278 ± 0.15; A -0.083 ± 0.044; K -0.038 ± 0.085; E -0.088 ± 0.055; C 0.003 ± 0.046; N -0.075 ± 0.087; D -0.171 ± 0.11; H 0.029 ± 0.069; S -0.104 ± 0.042
T20: W -0.516 ± 0.061; A 0.024 ± 0.043; H -0.047 ± 0.11; L -0.318 ± 0.043; C -0.118 ± 0.069; V -0.03 ± 0.039; Y -0.529 ± 0.11; G -0.069 ± 0.032; N 0.103 ± 0.099; I -0.101 ± 0.12; K 0.043 ± 0.069; M -0.15 ± 0.057; E 0.039 ± 0.053; Q -0.043 ± 0.063; F -0.716 ± 0.19; D -0.101 ± 0.086; S 0.041 ± 0.036; R -0.022 ± 0.032; P -0.013 ± 0.053
W18: M -0.957 ± 0.18; Y -0.669 ± 0.14; L -0.974 ± 0.087; A -0.862 ± 0.11; N -0.134 ± 0.18; G -0.779 ± 0.053; I -0.915 ± 0.24; T -0.98 ± 0.16; D -1.05 ± 0.24; K -0.864 ± 0.15; R -0.905 ± 0.07; S -0.835 ± 0.072; Q -0.944 ± 0.13; V -0.927 ± 0.081; F -0.901 ± 0.28; H -1 ± 0.46
H25: D -0.209 ± 0.084; R -0.304 ± 0.035; W -0.393 ± 0.048; I -0.138 ± 0.095; S -0.27 ± 0.042; G -0.207 ± 0.031; Y -0.002 ± 0.071; T -0.12 ± 0.054; C -0.266 ± 0.054; P -0.942 ± 0.1; Q -0.304 ± 0.067; L -0.167 ± 0.041; F -0.194 ± 0.09; M -0.303 ± 0.079; N -0.048 ± 0.07; V -0.219 ± 0.033; A -0.25 ± 0.039
S19: P -0.82 ± 0.1; R -0.14 ± 0.029; M -0.836 ± 0.14; N -0.053 ± 0.11; Y -0.65 ± 0.14; Q -0.225 ± 0.053; G -0.34 ± 0.035; F -0.849 ± 0.12; L -0.864 ± 0.094; K -0.281 ± 0.077; V -0.996 ± 0.1; E -0.311 ± 0.057; T 0.05 ± 0.073; H -0.096 ± 0.17; A -0.664 ± 0.062; C -0.487 ± 0.065; D -0.048 ± 0.072; W -0.927 ± 0.11
V23: F -0.89 ± 0.16; M -0.844 ± 0.15; A -0.575 ± 0.06; P -0.909 ± 0.091; Q -0.9 ± 0.13; R -0.724 ± 0.066; W -1.04 ± 0.16; G -0.982 ± 0.08; H -0.966 ± 0.2; D -0.873 ± 0.062; I -0.794 ± 0.14; L -0.746 ± 0.058; T -0.058 ± 0.037; K -0.791 ± 0.14; Y -0.804 ± 0.22; S -0.839 ± 0.067; E -0.951 ± 0.18; C -0.53 ± 0.08
W26: N -0.894 ± 0.21; S -1.13 ± 0.14; A -0.904 ± 0.079; I -0.804 ± 0.19; M -0.976 ± 0.14; L -0.886 ± 0.082; H -0.822 ± 0.16; Q -0.875 ± 0.13; K -0.906 ± 0.19; C -0.866 ± 0.096; Y -0.514 ± 0.12; E -1 ± 0.15; R -0.855 ± 0.057; F -0.404 ± 0.12; P -0.947 ± 0.091; T -1.03 ± 0.11
Q22: N -0.039 ± 0.098; D -0.072 ± 0.11; W -1 ± 0.18; T -0.875 ± 0.091; E 0 ± 0.027; F -0.792 ± 0.16; R -0.998 ± 0.094; M -0.219 ± 0.06; G -0.88 ± 0.063; P -0.991 ± 0.12; Y -0.763 ± 0.19; S -0.646 ± 0.052; K -0.787 ± 0.2; C -0.543 ± 0.12; A -0.295 ± 0.052; V -0.992 ± 0.097; I -0.899 ± 0.18; H -0.052 ± 0.085
L9: A -0.08 ± 0.053; K -0.061 ± 0.096; S -0.174 ± 0.046; T -0.11 ± 0.055; E -0.117 ± 0.067; G -0.373 ± 0.035; D -0.368 ± 0.095; M 0.011 ± 0.038; P -0.815 ± 0.096; I -0.081 ± 0.13; Q 0.016 ± 0.055; R -0.047 ± 0.037; Y -0.133 ± 0.082; V -0.013 ± 0.035; N -0.08 ± 0.079
